Test results from the supplement of paper PMC10899765.
Where “and” joins values, the source holds several entries; their conditions need not be identical. Equal values may be shown once.

Legend:
Conditions in all cases: 20 nM; 72 h
[1] = system: MCF10A; assay: percent viability (nuclei count relative to siNT); higher = more viable cells
Method: (§1)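 After 72 h, cells were fixed and stained with Hoechst and anti-fibrillarin, and nucleoli per nucleus were counted with CellProfiler. Values are plate-adjusted percent effect for the one-nucleolus and 5+ nucleoli phenotypes, normalised to siNT (0%) and to the positive controls siNOL11 or siKIF11 (100%), as the mean of biological triplicates. Percent viability is the nuclei count relative to siNT.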

[2] = system: MCF10A; assay: 5+ nucleoli phenotype percent effect (relative to siNT 0% and siKIF11 100%); higher = more cells with five or more nucleoli
Method: as §1

[3] = system: MCF10A; assay: one-nucleolus phenotype percent effect (relative to siNT 0% and siNOL11 100%); higher = more cells with one nucleolus (ribosome biogenesis inhibition)
Method: as §1

| Sequence | percent viability [1] | 5+ nucleoli phenotype percent effect [2] | one-nucleolus phenotype percent effect [3] |
| --- | --- | --- | --- |
| AUUAGGUAGUGGCAGUGGAAC [hsa-miR-6509-5p] | 55.7% | 6.73% | -17.9% |
| GUGGGUUGGGGCGGGCUCUG [hsa-miR-3940-5p] | 52.7% | -4.07% | -5.1% |
| GGGUUUGUAGCUUUGCUGGCAUG [hsa-miR-5087] | 26.6% | 6.11% | 4.68% |
| AAAAGUAACUGCGGUUUUUGA [hsa-miR-548ak] | 89.9% | 45.4% | -23.5% |
| UAAAAACUGCAAUUACUUUUA [hsa-miR-548aj-3p] | 115% | 35.3% | -18.5% |
| UAUAUGGACUUUUCUGAUACAAUG [hsa-miR-8076] | 49.4% | 44.8% | -22.4% |
| GGCGGCGGCGGAGGCGGGGG [hsa-miR-3960] | 47.6% | -17.5% | 26.8% |
| AGGGUGUGUGUGUUUUU [hsa-miR-4455] | 22.4% | 13.6% | 3.96% |
| CGCGCCUGCAGGAACUGGUAGA [hsa-miR-6720-3p] | 57.7% | 71.3% | -13.6% |
| UCCGUCUCAGUUACUUUAUAGC [hsa-miR-340-3p] | 74% | 26.3% | 1.48% |
| GACUGGACAAGCUGAGGAA [hsa-miR-3654] | 99.2% | 68.1% | -25.9% |
| AAAAGCUGGGUUGAGAGGA [hsa-miR-320d] | 50.4% and 40.7% | -8.63% and -12.1% | 27% and 27.3% |
| AGUAUUCUGUACCAGGGAAGGU [hsa-miR-630] | 68.7% | 49.7% | -15.1% |
| UCACUCUCACCUUGCUUUGC [hsa-miR-4639-3p] | 63% | 3.2% | -11.5% |
| AUCAUGUAUGAUACUGCAAACA [hsa-miR-6516-3p] | 46.4% | -35% | 25.6% |
| UGAAGUUACAUCAUGGUCGCUU [hsa-miR-4670-3p] | 36.1% | -11.4% | 2.16% |
| UGAGGGAGUUGGGUGUAUA [hsa-miR-6129] | 24.3% | -7.69% | 18.8% |
| UACUGCAGACGUGGCAAUCAUG [hsa-miR-509-3-5p] | 26.5% | -30.4% | 26.3% |
| UACCCUGUAGAUCCGAAUUUGUG [hsa-miR-10a-5p] | 39.9% | -19.7% | 19.4% |
| UUAUAAUACAACCUGAUAAGUG [hsa-miR-374a-5p] | 100% | 26.1% | -14.4% |
| ACGGGGAGUCAGGCAGUGGUGGA [hsa-miR-6777-5p] | 28.5% | -32.1% | 32% |
| CAUUACAGCACAGCCAUUCU [hsa-miR-6504-3p] | 47.5% | -25.6% | 2.85% |
| UGAGGAGAUGCUGGGACUGA [hsa-miR-4784] | 56.7% | 22.8% | -9% |
| CCAGGCUCUGCAGUGGGAACU [hsa-miR-3155a] | 32.5% | 30.4% | -2.13% |
